{"source": "the DeepSol protein solubility set", "data": [{"assay": "soluble on expression in E. coli; label from the status in PepcDB or PDB records", "values": [{"sequence": "GPGSMDKDVDVTKLTAQALQVHIERCERLMKQPALLSRLPDGGNGIRERYSKYLAEVERRKTNGAASALTAQKDGDGEVRDEDEAQSRPAAVEGCQDEKTVGDTTTAEVTYEEEARAIGERHRHFRVPVEEIVRRTFGGSLCDSELQRIINDVPPGFFLTYEETMSMERKLMEEERAETLERLRRQRSAGGVQ", "soluble on expression in E. coli": "soluble"}, {"sequence": "MGSDKIHHHHHHRYSLLYVPNSFIVPGGRFREFYYWDAYWIIKGLIASDMYNTTRSMIRNLASMVDKYGFVPNGGRVYYLQRSQPPFLAAMVYELYEATNDKAFVAELLPTLLKELNFWNEKRMTDVQMNGKSFKVYQYKTASNVPRPESYRVDTQNSAKLANGADQQQFYQDLASAAESGWDFSTRWFSDYKTLTSIETTKVLPVDLNGLLCWNMDIMEYLYEQIGDTKNSQIFRNKRADFRDTVQNVFYNRTDGTWYDYNLRTQSHNPRFYTSTAVPLFTNCYNTLNTGKSQKVFDYMDKMGVFTYPGGIPTSMSQESDQQWDFPNGWSPNNHMIIEGLRKSANPEMQDKGFLIASKWVMGNFRVFYETGHMWEKYNVIGSYPQPGSGGEYDVQDGFGWSNGAILDLLLTYNDRLFVPENFVNTTVTPSVESTTKSAPKYAKLPWVLVFAFMIRQLFNY", "soluble on expression in E. coli": "not soluble"}, {"sequence": "METCDLLAFGAHPDDVEIGMGGTIAKYVRRGYRIVICDLTQAELSSNGTVDERQREAAEAARRLGVSERFNLGLPDRGLYVEEEAIRQIAAVIRRCRPRLVFAPYWEDRHPDHGRCARLVEEAVFSAGIRRYGAGELGDAHRVRAVYYYMINAFCRPHFLIDISETIDDKLDSLRAYESQFQKRPGSVDTPLTNGYIEMIESRERWFGQQIGAAYAEGFLTKTPIHLSNLFEEER", "soluble on expression in E. coli": "not soluble"}, {"sequence": "ATGAAAAAATCAATCCTCAAATCTGTGTTAGCGTCTTCTATTACGCTTTCTATCACGCTAAGCAGCACTGCTTTCGCCTCTCCTATCGTGACACCAGACGCACCACAAATTGCCGCTAAAGGCTATGTACTGATGGATTACCATTCAGGAAAAGTGTTGGCTGAAAAAGAGATGGATACCAAACTCTCTCCTGCCAGCCTAACCAAGATGATGACCAGTTACGTGATCGGTCAAGAAGTAAAGCGTGGCAACATCTCGCTAAATGACGATGTCGTGATCAGCAAAAATGCTTGGGCGAAAAACTTCCCTGATTCTTCGAAAATGTTCGTTGAAGTCGGTACCACGGTTAAGGTCAGCGATCTCAACCGCGGCATCATCATCCAATCGGGTAATGATGCGTGTGTAGCGATGGCAGAGCACGTCGCAGGGACGGAAGATGCGTTTGTTGACCTGATGAACGCTTGGGCAAGCTCACTTGGGATGAAGAATTCGCACTTCACTAACTCTCACGGTTTGGACGATCCTAATCTTTACTCTACGCCATACGATCTGGCTCTACTTGGCCAAGCTCTGATCCGTGAWGTGCCTGAAGAGTACGCGATCTACTCCGAGCAAAAATTCACCTACAACGGCATCACTCAATACAACCGTAACGGTTTGCTTTGGGATAAAAGCATGAATGTGGACGGCATTAAAACCGGACATACGAGTGGTGCTGGCTATAACCTCGTGAGCTCTGCTACAGAAGGCAACATGCGCTTGGTTGCGGTGGTGATGGGTACTGACAACGAAAACGCGCGTAAAGCGGAAAGTAAGAAGCTACTGAGCTACGGTTTCCGCTTCTTTGAAACCGTGGCACCACACAAAGCGGGTGAAACTTTCGTGAATGAAACCATCTGGATGGGCGATAAAGACACGATTGCACTCGGTGTTGATAAAGATACTTACGTAACTTTGCCACGCGGACAGGCCAAAGATCTCACCGCCAGCTTTGTACTTGAAAAACAATTGAAAGCACCGCTGAAGAAAGGCGATATCGTCGGCACACTTTACTATCAATTAGCTGGTAACGATATTGCTCAATACCCATTGCTCGCACTGGAAGATGTGCAAGAAGGCAGCCTATTTAGCCGCCTATGGGATTACTTGGTTCTGCTGTTCAAAAGCTGGTTTTAA", "soluble on expression in E. coli": "not soluble"}, {"sequence": "MPPAKTKPKFPLCRLPSESVTNVLKIMKLSEIFNLSETSLKARSIVELAMQTIPSHLDLQGFPSKNYKLTVENDGQKVQVQFPHATDALTNFKQKLFRICKTFQIKTASVYFSCPVEAHIIELLGFIKKRKVQFQDFSIKGSVTEQNFKFFMTIGAQRFHLDMSETQPVTEVFALLKIQEVVLQNAAISSQMLNKVLKAWKTTSRLKKFRVIKNWKMDTSVVFQGLHVKQKSRSDTKKEYEIDLDGGGKATCCFKFEKGSSTNGFEFIVIN", "soluble on expression in E. coli": "not soluble"}, {"sequence": "MGSDKIHHHHHHMATANKNLKATWVATVTNLDWPSVSSVAITDEAARVSKQKEELTGILDEIVAMKMNAVIFQVVPCADAFYASDLLPWSKYLTGTLGKNPGFDPLAYAIEQAHARNIELHAWVNPYRVSMNASDATIEELNNSSSDSPASVFKTHPEWTGTAANRFVLNPGIPEVQTWVSNIVEEIVTKYDVDAIQFDDYFYYETASSLLQDDATYQKYNTNFTTKADWRRNNTYSLVDTCHKKIAAVKANVLFGVSPAGVWRNKSDDPLGSDTQAGASNYDFAYADTRKWVIDGIIDYIAPQVYWPFAREVARYDVITQWWADTVSGTGTALYIGMALYKVGTASETEPDWTVEGGVPEITRQLDLNDSLTEVSGCMLFRHMFLRASQTQQVVDYLKLRWADV", "soluble on expression in E. coli": "not soluble"}, {"sequence": "RPNVERDAQRRVNIRVTDEIVTALNERRIVMAFEPVVQAVSRAPAFHECLVRMKQDDGELLLAPDIVPVAEKLGLIRLVDHRVLELVVAELAAAPGVELSLNISPDTTMDADWWASIESLLGANPGVAERLIVEITETVAIQDLDDVRGFVNRLKNFGARIAIDDFGAGYTSFRNLRNLGVDIVKIDGAFVQNIARSADDRAFVQTLIDLARRLEIKTVAEWVQDEASAIMLRDWGCDYIQGRLIGLA", "soluble on expression in E. coli": "not soluble"}, {"sequence": "MATGVIRGAELSPSYIIEEILGLYQNIVVLSNEEIVYGLSDRNRELFQELEYLVSLEVEDSVVQDILQKKELEPAFTEIKRFRNLYTVRLETEHAKEILSSDSPWASLEMFSFYGNYLKLVRTEYEGLRLSSGDTVFFLGSGPLPLTLIVFFRLYGVKSTGIEKDSFRANLSKKVLEKLGLSSVIKIVNGNHFSLSRKDLSLSPDTGVKALMIAAQAEPKKEIFEHLLEVMPIGGRISCRIYEKGLRKLLSGNCLFDLPEGFVEQERVQPQPPVYNTVIFFEKKRLEHHHHHH", "soluble on expression in E. coli": "not soluble"}, {"sequence": "MGSDKIHHHHHHMFAHCDVNAFYASCQTAFRPDLKGRPVVVLSNNDGCVIARSAEAKPFVKMGEPYFKQKAAFLRHGVVAFSSNYELYADMSSRVMATLEELTPRCEIYSIDEAFCDVSGVRHCRDLTDFGREIRATVLQRTHLTLGVGIAQTKTLAKLANHAAKQWPRQTGGVVDLSCPQRQRKLMALLPVSEVWGIGRRIGKKLEAMGIGTVLQLAESDIRFIRKHFTVVLERTVRELRGEPCLALEEFAPAKQEIICSRSFGDRITAYEDMRQAICSYAARAAEKLRGEHQYCRFVSAFVKTSPFALNEPYYGNSASLKLLTPTQDSRDIIAAATSCLDAIWKAGHRYQKAGVMLGDFYSQGVAQLNLFDELAPRHNSARLMQVLDQLNAKNGRGALYFAGQGIQQQWQMKREMLSPRYTTRYGDLLRVR", "soluble on expression in E. coli": "not soluble"}, {"sequence": "GEDFFFVVMRDISSKKILEREFSMNEQLFKDLFDRAVDGIVLFDKDGGFIDANLSFCKSFEINHNELSHLSLYEFIDSGSRKDFDNIWKALNRKGKAKGELPVKLRSGVQKLFEFTITSNII", "soluble on expression in E. coli": "not soluble"}, {"sequence": "GPGSMFGRSALCLAKRFRYNTKYPSLVSYNKLPWEILNHETPEFHMHVAPHYEQIMTLAASTHVPHIVGKKHLEMPPEHRLRLLPGMFYMLDGDSIPEGFTANRVLDPTALQYYGRLESLVAPVQAVRMLISDDLRIVCNSVTLQGPLQLPVASYASLASLEVVTNKASASFTLFHFVRPNRPPSELQLEKYYIHAPRAMALAEFNSTSNTSWEPKLQAPKRSKRVTPLPAYRPPQSYLMGLAERLAVVPGSSFGRRSLMWGHWF", "soluble on expression in E. coli": "not soluble"}, {"sequence": "MLKQNTEREGRTIEQEDLKNLENEITEARENEDKYFSTFKGVRGQLIKECQEMKDEAFKIAYDGVMADSKHLENVKAGRLTEVQHEELAKEKGQEASEKALPKTPLGVAIMLKHYLRFIRVKPEAQGQKAPLYFFHPDHGVWLEDNEFLQDLISVIFPNATEKQAFDTLYKIARQSQLKEIQREYTVIGNQLYNYKTGQFEELTPDITVTRKIKTGYNKKAKEPTIKGWKPTAWLLELFDGDAELYNLAIQIIKASITGQSLQKIFWLFGEGGTGKGTFQQLLINLVGMDNVASLKITELAKSRFTTSILLGKSIVIGDDIQKDAVIKDTSDIFSLATGDIMTIEDKGKRPYSIRLNMTVVQSSNGLPRMNGDKSAIDRRFRILPFTKVFKGKPNKAIRNDYINRKEVLEYLLKLAIETPITDINPKASIEILEEHHKEMNPVIDFVSKFFTDELTSEFIPNSFVYHVWKGFLEYYDIKQIKSERGLHKEIKSNLPEGFEAGQKVIPVGRQLHTGFYPKEDLPLFASASYANGRASPEKRKKPKNERGYYNHWPTHKKQKKT", "soluble on expression in E. coli": "soluble"}, {"sequence": "KKLLLIGAGRISYYLLNILKNNRIKVKLIEQKMDRAQTFSQVFPEVSVILGDGTAKDLLLEESAASYDAVATLTGVDEENIITSMFLESLGVHKNITKVNRTSLLEIVDTRETTTIVTPKSIAVDTVMHFVRGHYNA", "soluble on expression in E. coli": "not soluble"}, {"sequence": "MNIQSIETYQVRLPLKTPFVTSYGRLEEKAFDLFVITDEQGNQGFGELVAFEQPDYVQETLVTERFIIQQHLIPLLLTEAIEQPQEVSTIFEEVKGHWMGKAALETAIWDLYAKRQQKSLTEFFGPTRRKIPVGISLGIQEDLPQLLKQVQLAVEKGYQRVKLKIRPGYDVEPVALIRQHFPNLPLMVDANSAYTLADLPQLQRLDHYQLAMIEQPFAADDFLDHAQLQRELKTRICLDENIRSLKDCQVALALGSCRSINLKIPRVGGIHEALKIAAFCQENDLLVWLGGMFESGVGRALNLQFASQPTFSFPGDISATERYFYEDIITEPFILEQGTMTVPQGLGIGVTLSQTNLLKYSQYQKIM", "soluble on expression in E. coli": "not soluble"}, {"sequence": "MDIRQLQFFVAIVRFGSFTKAAERLRVAQPAVSMAMKRLEEELDLVLFNRQERKVSLTAEGEIFLRHAEKILEEVASTETEMEELRGLAKGEVRVGIPPMMSAYFFPQIIRDFSNRYPELHLSVSGEGASKIQKMILDGELDMGVIAGASFPDTLELRRFLREEVIVCVPKNHHLAEMERLPLQEFARHPLIFYKEGYYLRELVFDVMRGAGLNPAIRFETNLYTLVKSLIRKGMGISVFLRMVVEEDDDLEAIPLDPPLYLDLQIAWKKYGYLSRANRAFVDFLLEQSARAHQPVGSCPARLVPAG", "soluble on expression in E. coli": "not soluble"}, {"sequence": "MGSDKIHHHHHHMNDPLDPLPSLNALRAFEAASRHLNFRLAAGELGVTQGAVAQHVRGLESSIGLVLFERRPRALVLTENGRSYAASVRRAFDLLVEATQALRPQPLQLTISVTPTFAAKWLIPRLQDFTAAHPEIDLRIIATDRLSHFQTDAIDLAVRYGQPPFGVGLNAECLFESVLVAVGSPRLANELRSSGAARFFARYPLLHDAHNQWPPFLQEVLKQSAAIGEKNIRFNQTSLAIDAAMAGQGIALAPFAFVGRAIAMGGLSRIFDVELRTGSGFYVVTPRRLRHPGPVAAVRGWLLKQGREQMCD", "soluble on expression in E. coli": "not soluble"}, {"sequence": "MRLGVNVDHVATVRQARRTFEPSPVFAALIAQQAGADQITLHLREDRRHIQDRDLELIKELITIPVNLEMAPTEEMREIALRVKPDRITLVPERREEITTEGGLDVVSLKEKLKEYLKPIKEAGIEVSLFIEAQKEQIDASVEVGADAIEIHTGRYANLWNEHRFEEAKEELNRIKEAAIYAKEKGLKVYAGHGLTYHNVKDFVRELKGYVEELNIGHSIVANAVIFGFERAVKEMLNLIKT", "soluble on expression in E. coli": "soluble"}, {"sequence": "GSARDISSTNVTDLTVSPSKIEDGGKTTVKMTFDDKNGKIQNGDMIKVAWPTSGTVKIEGYSKTVPLTVKGEQVGQAVITPDGATITFNDKVEKLSDVSGFAEFEVQGRNLTQTNTSDDKVATITSGNKSTNVTVHKSEAGTSSVFYYKTGDMLPEDTTHVRWFLNINNEKSYVSKDITIKDQIQGGQQLDLSTLNINVTGTHSNYYSGQSAITDFEKAFPGSKITVDNTKNTIDVTIPQGYGSYNSFSINYKTKITNEQQKEFVNNSQAWYQEHGKEEVNGKSFNHTVHNINANAGIEGTVK", "soluble on expression in E. coli": "soluble"}]}]}
